Source: the supplement of paper PMC12667976
± gives the standard error.

B1: library; numbered along this chain (parent)
chain: MATDAALRRLLRLHRTEIAVAVDSAFPLLHALADHDVVPEDKFQETLHLKEKEGCPQAFHALLSWLLTQDSTAILDFWRVLFKDYNLERYGRLQPILDSFPKDVDLSQPRKGRKPPAVPKALVPPPRLPTKRKASEEARAAAPAALTPRGTASPGSQLKAKPPKKPESSAEQQRLPLGNGIQTMSASVQRAVAMSSGDVPGARGAVEGILIQQVFESGGSKKCIQVGGEFYTPSKFEDSGSGKNKARSSSGPKPLVRAKGAQGAAPGGGEARLGQQGSVPAPLALPSDPQLHQKNEDECAVCRDGGELICCDGCPRAFHLACLSPPLREIPSGTWRCSSCLQATVQEVQPRAEEPRPQEPPVETPLPPGLRSAGEEVRGPPGEPLAGMDTTLVYKHLPAPPSAAPLPGLDSSALHPLLCVGPEGQQNLAPGARCGVCGDGTDVLRCTHCAAAFHWRCHFPAGTSRPGTGLRCRSCSGDVTPAPVEGVLAPSPARLAPGPAKDDTASHEPALHRDDLESLLSEHTFDGILQWAIQSMARPAAPFPS

Variants of: B1
Assay: AIRE transcriptional activation functional score (insulin promoter-GFP; nonsense median 0, synonymous median 1) (normalised score); higher = higher AIRE activity (more reporter activation)
Details: with insulin promoter-GFP reporter in HEK293
Procedure: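 Deep mutational scan of full-length human AIRE (codon-optimized cDNA, DT-POPCode NNN libraries over three regions) integrated at a Bxb1 landing pad in HEK293 cells carrying an insulin core promoter-GFP reporter at a Flp-In site. Cells were sorted for the top 10% GFP about 14 days after transfection. Variant frequency log-ratios (select vs non-select, TileSeq) were rescaled so that the nonsense median is 0 and the synonymous median is 1, then averaged over biological replicates.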

AIRE transcriptional activation functional score: each site, then its substitutions
K131: P 0.0359 ± 0.37 | S 0.0229 ± 0.23 | I -0.103 ± 0.13 | A 0.284 ± 0.099 | H 0.185 ± 0.12 | V 0.174 ± 0.31 | R -0.372 ± 0.3 | W -0.218 ± 0.026 | G -0.226 ± 0.29 | F 0.0637 ± 0.14 | L -0.159 ± 0.3 | C -0.0234 ± 0.18 | M 0.154 ± 0.08 | T -0.293 ± 0.16 | D -0.154 ± 0.41 | Q -0.125 ± 0.077 | E 0.0987 ± 0.29 | N 0.0453 ± 0.36 | Y 0.0539 ± 0.21
R132: T -0.125 ± 0.69 | W 0.538 ± 0.051 | C -0.0301 ± 0.38 | I -0.0777 ± 0.2 | V -0.3 ± 0.31 | N -0.47 ± 0.23 | K 0.0662 ± 0.16 | A 0.179 ± 0.53 | Q 0.308 ± 0.29 | P -0.258 ± 0.42 | H 0.458 ± 0.6 | G 0.129 ± 0.2 | M 0.275 ± 0.13 | F -0.0252 ± 0.14 | E 0.0732 ± 0.14 | S 0.00923 ± 0.41 | L -0.017 ± 0.32 | D 0.252 ± 0.23
P125: K 0.907 ± 0.37 | M 1.18 ± 0.048 | A 1.25 ± 0.44 | W 1.36 ± 0.14 | I 1.36 ± 0.48 | Q 0.768 ± 0.42 | F 0.97 ± 0.082 | Y 0.77 ± 0.17 | S 1.04 ± 0.39 | G 1.08 ± 0.39 | L 1.24 ± 0.24 | H 1.27 ± 0.22 | R 0.79 ± 0.34 | V 1.19 ± 0.25 | N 0.92 ± 0.2 | C 0.918 ± 0.33 | D 0.901 ± 0.16 | E 0.892 ± 0.15 | T 1.42 ± 0.28
L128: E 0.0699 ± 0.22 | F 1.43 ± 0.27 | Q 0.496 ± 0.2 | A 1.19 ± 0.6 | T 1.62 ± 0.54 | V 1.12 ± 0.24 | N 1.02 ± 0.23 | C 1.19 ± 0.3 | G 1.51 ± 0.26 | Y 1.41 ± 0.52 | S 0.817 ± 0.16 | M 1.32 ± 0.058 | R 0.525 ± 0.62 | W 1.39 ± 0.091 | H 0.857 ± 0.26 | I 1.19 ± 0.19 | D -0.0224 ± 0.18 | K -0.124 ± 0.14 | P 1.17 ± 0.34
P124: S 1.08 ± 0.38 | L 1.09 ± 0.26 | D 0.6 ± 0.38 | Y 1.81 ± 0.44 | E 0.934 ± 0.7 | F 1.35 ± 0.25 | M 1.48 ± 0.096 | N 0.804 ± 0.27 | G 1.27 ± 0.41 | T 0.68 ± 0.46 | I 1.71 ± 0.21 | W 1.5 ± 0.057 | H 0.958 ± 0.27 | K 0.627 ± 0.26 | V 1.65 ± 0.37 | Q 0.964 ± 0.14 | R 0.769 ± 0.43 | C 1.15 ± 0.32
R127: C 0.833 ± 0.084 | H 0.326 ± 0.35 | E 0.317 ± 0.17 | S 0.869 ± 0.22 | F 0.897 ± 0.11 | P 0.804 ± 0.38 | Q 0.887 ± 0.18 | I 0.611 ± 0.18 | W 0.912 ± 0.12 | T 0.335 ± 0.37 | L 0.607 ± 0.27 | D 0.358 ± 0.12 | V 0.801 ± 0.21 | K 0.758 ± 0.21 | Y 0.503 ± 0.099 | N 1.09 ± 0.27 | M 1.1 ± 0.049 | G 0.421 ± 0.18 | A 0.314 ± 0.39
T130: E 0.325 ± 0.53 | K 0.531 ± 0.12 | S 1.36 ± 0.41 | A 1.78 ± 0.43 | V 0.747 ± 0.4 | P 1.36 ± 0.33 | D 0.225 ± 0.23 | H 0.621 ± 0.2 | I 1.05 ± 0.38 | R 0.316 ± 0.33 | L 1.13 ± 0.48 | W 1.39 ± 0.29 | N 0.915 ± 0.14 | G 1.13 ± 0.6 | C 1.38 ± 0.32 | Y 1.11 ± 0.15 | F 1.71 ± 0.24
P126: V 0.0693 ± 0.094 | Y -0.0102 ± 0.2 | Q -0.177 ± 0.055 | F 0.304 ± 0.22 | R -0.0135 ± 0.24 | W 0.0843 ± 0.12 | H 0.139 ± 0.23 | D 0.773 ± 0.063 | C 0.317 ± 0.087 | I 0.105 ± 0.14 | E 0.762 ± 0.25 | L 0.122 ± 0.14 | S 0.0633 ± 0.23 | G 1.42 ± 0.35 | N 0.042 ± 0.11 | M 0.141 ± 0.079 | K 1.08 ± 0.12 | A 0.621 ± 0.17 | T 0.134 ± 0.17
P129: A 0.717 ± 0.53 | W -0.183 ± 0.087 | Y 0.0475 ± 0.46 | L 0.107 ± 0.25 | M 0.564 ± 0.18 | V 0.215 ± 0.2 | F 0.395 ± 0.1 | K 1.07 ± 0.73 | T 1.17 ± 0.79 | C 0.895 ± 0.2 | S 0.685 ± 0.55 | G 0.951 ± 0.62 | D 0.0133 ± 0.42 | E -0.0453 ± 0.46 | R 0.451 ± 0.35 | I 0.253 ± 0.74 | N 0.901 ± 0.6 | H -0.142 ± 0.24 | Q 0.651 ± 0.14
